Reference: patent US20020155571A1, “Triazine degrading enzymes” (priority 2000, published 2002)
Numbering of substitutions follows the chain as printed.

What was measured:
Assay type in all cases: biochemical
[1] = High throughput mass spectrometry screen of triazine hydrolase library against about 15 triazine derivatives; conditions: for Substrate Activity: nme-atrazine: column lists substrates on which the library member shows preferred triazine hydrolase activity; for Substrate Activity: ametryn: preferred substrates
[2] = Product formation by washed and induced cells expressing triazine hydrolase, substrate ametryn; conditions: 250 μM substrate, 20 ul washed and induced cells in 100 μl NH3Acetate pH 6.8, 22° C.
[3] = Product formation by washed and induced cells expressing triazine hydrolase, substrate propazine; conditions: 250 μM substrate, 20 ul washed and induced cells OD600 = 3 in 100 μl 10 mM NH3Acetate pH 6.8, 37° C.
[4] = Product formation by washed and induced cells expressing triazine hydrolase, substrate prometon; conditions: 250 μM substrate, 20 ul washed and induced cells OD600 = 3 in 100 μl 10 mM NH3Acetate pH 6.8, 37° C.
[5] = Product formation by washed and induced cells expressing triazine hydrolase, substrate N-methylpropazine; conditions: 250 μM substrate, 20 ul washed and induced cells OD600 = 3 in 100 μl 10 mM NH3Acetate pH 6.8, 37° C.
[6] = Product formation by washed and induced cells expressing triazine hydrolase, substrate aminoatrazine; conditions: 250 μM substrate, 20 ul washed and induced cells in 100 μl NH3Acetate pH 6.8, 22° C.
[7] = Product formation by washed and induced cells expressing triazine hydrolase, substrate atratone; conditions: 250 μM substrate, 20 ul washed and induced cells in 100 μl NH3Acetate pH 6.8, 22° C.
[8] = Product formation by washed and induced cells expressing triazine hydrolase, substrate prometryn; conditions: 250 μM substrate, 20 ul washed and induced cells OD600 = 3 in 100 μl 10 mM NH3Acetate pH 6.8, 37° C.
[9] = Product formation by washed and induced cells expressing triazine hydrolase, substrate atrazine; conditions: 250 μM substrate, 20 ul washed and induced cells in 100 μl NH3Acetate pH 6.8, 22° C.
[10] = Product formation by washed and induced cells expressing triazine hydrolase, substrate N-methylatrazine; conditions: 250 μM substrate, 20 ul washed and induced cells in 100 μl NH3Acetate pH 6.8, 22° C.
[11] = Product formation by washed and induced cells expressing triazine hydrolase, substrate aminopropazine; conditions: 250 μM substrate, 20 ul washed and induced cells OD600 = 3 in 100 μl 10 mM NH3Acetate pH 6.8, 37° C.
[12] = Table 5, the value is the triazine substrate the library member (atzA-based variant) is active on, preferred members, not exclusive
[13] = substrate(s) on which the triazine hydrolase library member shows activity, column indicates preferred embodiments and is not exclusive
[14] = substrate propazine, column indicates preferred embodiments, not exclusive

B1: 113 (protein)
chain: MQTLSIQHGTLVTMDQYRRVLGDSWVHVQDGRIVALGVHAESVPPPADRVIDARGKVVLPGFINAHTHVNQILLRGGPSHGRQFYDWLFNVLYPGQKAMRPEVAVAVRLYCAEAVRSGITTINEEADSAIYPGNIEAAMAVYGEVGVRVVYARMFFDRMDGRIQGYVDALKARSPQVELCSIMEETAVAKDRITALSDQYHGTAGGRISVWPAPATTTTVTVEGMRWAQAFARDRAVMWTLHMAESDHDERIIGGSPAEYMECYGLLDERLQVAHCVYFDRKDVRLLHRHNVKVASQVVSNAYLGSGVAPVPEMVERGMAVGIGTDNDNSCDSVNMIGDMKFMAHIHRAVHRDADVLTPEKILEMATIDGARSLGMDHEIGSIETGKRADLILLDLRHPQTTPHHHLAATIVFQAYGNEVDTVLIDGNVVMENRRLSFLPPERELAFLEEAQSRATAILQRANMVANPAWRSL
[1]; [12]
  Substrate Activity: atratone

B2: 349 (protein)
chain: B1 chain with F84L, T217I, I253L, G255W
[1]; not exclusive
  Substrate Activity: nme-atrazine: nme-atrazine

B3: 504 (protein)
chain: B1 chain with F84L, L92V, G255W, D328N, C331S
[1]; [13]
  Substrate Activity: propazine

B4: 382 (protein)
chain: B1 chain with F84L, I253L, G255W, C331S
[1]; not exclusive
  Substrate Activity: ametryn: ametryn

B5: 57 (protein)
chain: B1 chain with E125D, I253L
[1]; [12]
  Substrate Activity: atratone

B6: 117 (protein)
chain: B1 chain with G255W
[1]; [12]
  Substrate Activity: atratone

B7: 512 (protein)
chain: B1 chain with F84L, L92V, I253L, G255W, D328N, C331S
[1]; [13]
  Substrate Activity: propazine

B8: 345 (protein)
chain: B1 chain with F84L, T217I, I253L
[1]; not exclusive
  Substrate Activity: nme-atrazine: nme-atrazine

B9: 482 (protein)
chain: B1 chain with F84L, L92V, T219P, C331S
[1]; [13]
  Substrate Activity: prometryn

B10: 124 (protein)
chain: B1 chain with I253L, D328N, C331S
[1]; [12]
  Substrate Activity: atrazine

B11: 383 (protein)
chain: B1 chain with F84L, I253L, G255W, D328N
[1]; not exclusive
  Substrate Activity: ametryn: ametryn

B12: 244 (protein)
chain: B1 chain with L92V, D328N, C331S
[1]; [14]
  Substrate Activity: propazine

B13: 318 (protein)
chain: B1 chain with F84L, E125D, I253L, G255W, C331S
[1]; not exclusive
  Substrate Activity: ametryn: ametryn

B14: 61 (protein)
chain: B1 chain with E125D, I253L, G255W
[1]; [12]
  Substrate Activity: atratone

B15: 53 (protein)
chain: B1 chain with E125D, G255W
[1]; [12]
  Substrate Activity: atratone

B16: 498 (protein)
chain: B1 chain with F84L, L92V, C331S
[1]; [13]
  Substrate Activity: prometryn

B17: 502 (protein)
chain: B1 chain with F84L, L92V, G255W, C331S
[1]; [13]
  Substrate Activity: prometryn

B18: 466 (protein)
chain: B1 chain with F84L, L92V, T217I, C331S
[1]; [13]
  Substrate Activity: prometryn

B19: 248 (protein)
chain: B1 chain with L92V, G255W, D328N, C331S
[1]; [14]
  Substrate Activity: propazine

B20: 314 (protein)
chain: B1 chain with F84L, E125D, I253L, C331S
[1]; not exclusive
  Substrate Activity: ametryn: ametryn

B21: 370 (protein)
chain: B1 chain with F84L, C331S
[1]; not exclusive
  Substrate Activity: ametryn: ametryn

B22: 128 (protein)
chain: B1 chain with I253L, G255W, D328N, C331S
[1]; [12]
  Substrate Activity: atrazine

B23: 508 (protein)
chain: B1 chain with F84L, L92V, I253L, D328N, C331S
[1]; [13]
  Substrate Activity: propazine

B24: 49 (protein)
chain: B1 chain with E125D
[1]; [12]
  Substrate Activity: atratone

B25: atzA: naturally occurring atrazine chlorohydrolase (atzA), GenBank #U55933 (protein, UniProt P72156 1-474, looked up)
Atrazine chlorohydrolase: MQTLSIQHGTLVTMDQYRRVLGDSWVHVQDGRIVALGVHAESVPPPADRVIDARGKVVLPGFINAHTHVNQILLRGGPSHGRQFYDWLFNVVYPGQKAMRPEDVAVAVRLYCAEAVRSGITTINENADSAIYPGNIEAAMAVYGEVGVRVVYARMFFDRMDGRIQGYVDALKARSPQVELCSIMEETAVAKDRITALSDQYHGTAGGRISVWPAPATTTAVTVEGMRWAQAFARDRAVMWTLHMAESDHDERIHGMSPAEYMECYGLLDERLQVAHCVYFDRKDVRLLHRHNVKVASQVVSNAYLGSGVAPVPEMVERGMAVGIGTDNGNSNDSVNMIGDMKFMAHIHRAVHRDADVLTPEKILEMATIDGARSLGMDHEIGSIETGKRADLILLDLRHPQTTPHHHLAATIVFQAYGNEVDTVLIDGNVVMENRRLSFLPPERELAFLEEAQSRATAILQRANMVANPAWRSL
[2]
  Product formation, substrate Ametryn: 0 nM/h
[3]
  Product formation, substrate Propazine: 26 nM/h
[4]
  Product formation, substrate Prometon: 0 nM/h
[5]
  Product formation, substrate NMePropazine: 0 nM/h
[6]
  Product formation, substrate Aminoatrazine: 0 nM/h
[7]
  Product formation, substrate Atratone: 0 nM/h
[8]
  Product formation, substrate Prometryn: 0 nM/h
[9]
  Product formation, substrate Atrazine: 58899 nM/h
[10]
  Product formation, substrate NMeAtrazine: 0 nM/h
[11]
  Product formation, substrate Aminopropazine: 0 nM/h
